biological target: crp_human CRP (UniProt P02741)
Sequence (P02741 whole entry): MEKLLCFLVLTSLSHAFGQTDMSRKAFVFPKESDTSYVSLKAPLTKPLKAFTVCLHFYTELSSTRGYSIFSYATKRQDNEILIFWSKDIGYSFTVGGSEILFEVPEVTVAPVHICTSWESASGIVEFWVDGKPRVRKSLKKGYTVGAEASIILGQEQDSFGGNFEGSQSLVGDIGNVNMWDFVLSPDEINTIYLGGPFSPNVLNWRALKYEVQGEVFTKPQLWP

effect of a mutation on the interaction	Substance
with no effect	Collectin-12 (Homo sapiens), Q5KU26 K466A;K469A;K472A
decreasing interaction strength	Collectin-12 (Homo sapiens), Q5KU26 R448A;R451A;R454A
decreasing interaction strength	Collectin-12 (Homo sapiens), Q5KU26 R448A;R451A;R454A;K466A;K469A;K472A;R496A;K499A;K502A
disrupting interaction strength	Collectin-12 (Homo sapiens), Q5KU26 R496A;K499A;K502A
